In publication PMC2756588:

What was measured:
Test in all cases: SPOT array
[1] = molecular target: T1, Bbc1, P47068; details: median of control spots 796
T1 sequence (P47068 1-78, looked up): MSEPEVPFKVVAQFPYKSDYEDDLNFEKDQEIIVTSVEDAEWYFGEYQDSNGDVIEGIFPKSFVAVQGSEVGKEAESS

[2] = molecular target: Rvs167, P39743; details: median of control spots 2707
[3] = molecular target: T2, Fus1, P11710; details: median of control spots 1200
T2 sequence (P11710 432-512, looked up): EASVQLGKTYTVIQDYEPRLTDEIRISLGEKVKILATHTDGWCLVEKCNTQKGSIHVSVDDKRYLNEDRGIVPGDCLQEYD

[4] = molecular target: GST; details: median of control spots 978
[5] = molecular target: T3, Lsb1, P53281; details: median of control spots 388
T3 sequence (P53281 45-122, looked up): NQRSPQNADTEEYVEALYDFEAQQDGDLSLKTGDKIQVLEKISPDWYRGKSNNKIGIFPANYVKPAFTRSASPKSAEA

[6] = molecular target: T4, Lsb3, P43603; details: median of control spots 406
T4 sequence (P43603 385-451, looked up): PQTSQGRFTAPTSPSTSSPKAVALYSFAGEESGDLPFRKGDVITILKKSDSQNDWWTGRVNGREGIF

[7] = molecular target: T5, Bud14, P27637; details: median of control spots 956
T5 sequence (P27637 247-328, looked up): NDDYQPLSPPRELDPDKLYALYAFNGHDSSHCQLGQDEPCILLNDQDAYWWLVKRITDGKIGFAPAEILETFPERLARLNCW

[8] = molecular target: T6, Bzz1-2, P38822; details: median of control spots 4538
T6 sequence (P38822 568-633, looked up): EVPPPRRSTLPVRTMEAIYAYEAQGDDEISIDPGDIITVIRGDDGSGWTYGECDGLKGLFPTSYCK

[9] = molecular target: T7, Sla1-2, P32790; details: median of control spots 712
T7 sequence (P32790 60-140, looked up): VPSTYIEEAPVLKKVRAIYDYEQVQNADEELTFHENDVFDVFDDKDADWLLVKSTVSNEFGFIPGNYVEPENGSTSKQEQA

[10] = molecular target: T8, Boi1, P38041; details: median of control spots 1162
T8 sequence (P38041 1-86, looked up): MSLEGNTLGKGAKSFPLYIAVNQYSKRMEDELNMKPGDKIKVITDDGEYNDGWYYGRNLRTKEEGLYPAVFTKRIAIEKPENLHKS

[11] = molecular target: Sho1, P40073; details: median of control spots 1148
[12] = molecular target: Bem1-1, P29366; details: median of control spots 4282
[13] = molecular target: Myo3, P36006; details: median of control spots 468
[14] = molecular target: T9, Bzz1-1, P38822; details: median of control spots 4446
T9 sequence (P38822 478-572, looked up): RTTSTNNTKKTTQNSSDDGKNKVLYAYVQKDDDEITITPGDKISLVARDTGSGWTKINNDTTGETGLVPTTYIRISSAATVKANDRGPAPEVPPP

[15] = molecular target: T10, Lsb4, P32793; details: median of control spots 397
T10 sequence (P32793 402-468, looked up): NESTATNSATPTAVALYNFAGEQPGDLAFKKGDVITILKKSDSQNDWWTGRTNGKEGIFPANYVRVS

[16] = molecular target: T11, Cdc25, P04821; details: median of control spots 969
T11 sequence (P04821 50-136, looked up): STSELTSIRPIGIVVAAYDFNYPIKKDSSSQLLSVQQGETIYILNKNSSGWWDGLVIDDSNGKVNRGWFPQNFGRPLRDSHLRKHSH

[17] = molecular target: T12, Pin3, Q06449; details: median of control spots 2171
T12 sequence (Q06449 53-122, looked up): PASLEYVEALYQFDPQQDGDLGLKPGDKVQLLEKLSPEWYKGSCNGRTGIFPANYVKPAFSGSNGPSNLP

[18] = molecular target: T13, Hof1, Q05080; details: median of control spots 4086
T13 sequence (Q05080 590-669, looked up): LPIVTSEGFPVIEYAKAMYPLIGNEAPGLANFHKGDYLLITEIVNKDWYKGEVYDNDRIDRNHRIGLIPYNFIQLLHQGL

[19] = molecular target: T14, Pex13, P80667; details: median of control spots 1341
T14 sequence (P80667 295-386, looked up): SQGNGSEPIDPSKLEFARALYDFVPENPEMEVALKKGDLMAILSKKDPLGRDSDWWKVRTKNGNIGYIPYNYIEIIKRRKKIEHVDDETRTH

[20] = molecular target: Bem1-2, P29366; details: median of control spots 4347
[21] = molecular target: T15, Cyk3, Q07533; details: median of control spots 1451
T15 sequence (Q07533 1-83, looked up): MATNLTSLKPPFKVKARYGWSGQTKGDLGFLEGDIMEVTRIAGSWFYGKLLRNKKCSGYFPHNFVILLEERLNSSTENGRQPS

[22] = molecular target: T16, Sla1-3, P32790; details: median of control spots 5475
T16 sequence (P32790 344-424, looked up): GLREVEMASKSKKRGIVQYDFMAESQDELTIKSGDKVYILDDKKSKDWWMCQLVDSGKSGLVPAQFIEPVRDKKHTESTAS

[23] = molecular target: T17, Boi2, P39969; details: median of control spots 1161
T17 sequence (P39969 32-116, looked up): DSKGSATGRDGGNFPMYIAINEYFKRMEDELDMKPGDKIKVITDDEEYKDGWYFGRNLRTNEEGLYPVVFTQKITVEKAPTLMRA

[24] = molecular target: T18, Abp1, P15891; details: median of control spots 935
T18 sequence (P15891 535-592, looked up): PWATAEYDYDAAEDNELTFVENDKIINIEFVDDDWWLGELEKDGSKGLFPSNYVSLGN

[25] = molecular target: T19, Nbp2, Q12163; details: median of control spots 357
T19 sequence (Q12163 103-180, looked up): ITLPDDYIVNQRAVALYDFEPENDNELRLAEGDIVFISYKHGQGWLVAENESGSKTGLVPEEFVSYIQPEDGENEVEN

[26] = molecular target: T20, Hse1, P38753; details: median of control spots 1727
T20 sequence (P38753 208-285, looked up): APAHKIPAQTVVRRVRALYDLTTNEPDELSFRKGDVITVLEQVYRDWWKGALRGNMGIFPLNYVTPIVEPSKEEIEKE

[27] = molecular target: T21, Myo5, Q04439; details: median of control spots 471
T21 sequence (Q04439 1072-1160, looked up): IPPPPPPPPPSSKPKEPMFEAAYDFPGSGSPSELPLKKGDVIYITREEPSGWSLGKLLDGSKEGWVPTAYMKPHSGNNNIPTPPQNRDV

Chain of Sho1, P40073 (P40073 287-367): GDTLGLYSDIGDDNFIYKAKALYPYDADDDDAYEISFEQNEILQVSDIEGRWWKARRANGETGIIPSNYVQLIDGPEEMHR
Chain of Rvs167, P39743 (P39743 419-482): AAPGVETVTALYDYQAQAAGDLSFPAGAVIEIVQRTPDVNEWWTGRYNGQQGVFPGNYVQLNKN
Chain of Bem1-2, P29366 (P29366 139-227): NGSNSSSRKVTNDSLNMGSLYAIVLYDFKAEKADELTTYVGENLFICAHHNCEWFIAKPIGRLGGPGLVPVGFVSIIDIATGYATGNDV
Chain of Bem1-1, P29366 (P29366 55-141): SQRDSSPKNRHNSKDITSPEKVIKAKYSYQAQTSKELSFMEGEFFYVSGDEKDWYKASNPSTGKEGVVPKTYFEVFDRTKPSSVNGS

| Binder | SPOT intensity [1] | SPOT intensity [2] | SPOT intensity [3] | SPOT intensity [4] | SPOT intensity [5] | SPOT intensity [6] | SPOT intensity [7] | SPOT intensity [8] | SPOT intensity [9] | SPOT intensity [10] | SPOT intensity [11] | SPOT intensity [12] | SPOT intensity [13] | SPOT intensity [14] | SPOT intensity [15] | SPOT intensity [16] | SPOT intensity [17] | SPOT intensity [18] | SPOT intensity [19] | SPOT intensity [20] | also measured |
| --- | --- | --- | --- | --- | --- | --- | --- | --- | --- | --- | --- | --- | --- | --- | --- | --- | --- | --- | --- | --- | --- |
| VTHRLRISIPGITGR | 30 | 0 | 14 | 1 | 382 | 8 | 12 | 0 | 4 | 0 | 180 | 2 | 13 | 0 | 22 | 19 | 46 | 0 | 20 | 4 | SPOT intensity [21]: 0; SPOT intensity [22]: 0; SPOT intensity [23]: 0; SPOT intensity [24]: 225; SPOT intensity [25]: 72; SPOT intensity [26]: 5; SPOT intensity [27]: 11 |
| LLIRWLILMPLVGSR | 339 | 1 | 168 | 2 | 47 | 6 | 29 | 7 | 3 | 23 | 150 | 0 | 34 | 3 | 25 | 176 | 47 | 12 | 78 | 4 | SPOT intensity [21]: 4; SPOT intensity [22]: 7; SPOT intensity [23]: 4; SPOT intensity [24]: 166; SPOT intensity [25]: 215; SPOT intensity [26]: 25; SPOT intensity [27]: 10 |
| FHLNPKRSAVLYDRP | 10 | 7 | 309 | 5 | 0 | 0 | 9 | 38 | 0 | 0 | 35 | 245 | 0 | 3 | 0 | 25 | 32 | 83 | 35 | 308 | SPOT intensity [21]: 0; SPOT intensity [22]: 140; SPOT intensity [23]: 0; SPOT intensity [24]: 24; SPOT intensity [25]: 0; SPOT intensity [26]: 40; SPOT intensity [27]: 1 |
| ILARAILTIPRVLDK | 35 | 0 | 9 | 0 | 23 | 8 | 10 | 2 | 6 | 0 | 137 | 1 | 17 | 0 | 38 | 36 | 107 | 0 | 56 | 0 | SPOT intensity [21]: 0; SPOT intensity [22]: 4; SPOT intensity [23]: 0; SPOT intensity [24]: 189; SPOT intensity [25]: 17; SPOT intensity [26]: 5; SPOT intensity [27]: 3 |
